Measurements from patent EP4659811A1 (Université de Strasbourg, dated 2025).

Tests used:
[1] = biological target: T1, VP1 pentamer of BKV genotype IV (recombinant) (BK virus genotype IV, UniProt P14996 30-300); assay: ELISA, coated VP1 pentamer
T1 construct: also called GIV; VP1 BKV subtype IV; not shown: N-terminal His-tag of pESPRIT002; C-terminal biotin acceptor peptide (BAP) of pESPRIT002

[2] = biological target: T2, VP1 pentamer of BKV genotype II (recombinant) (BK virus genotype II, UniProt P14996 30-300); assay: ELISA, coated VP1 pentamer
T2 construct: also called GII; VP1 geno II pentamer; not shown: N-terminal His-tag of pESPRIT002; C-terminal biotin acceptor peptide (BAP) of pESPRIT002

[3] = biological target: VP1 capsid protein on BKV pseudovirions of genotype IVc2 (A-66H; AB369093) (BK virus genotype IVc2 (A-66H)); assay: cell-based or functional assay
[4] = biological target: VP1 capsid protein on BKV pseudovirions of genotype II (GBR-12; AB263920) (BK virus genotype II (GBR-12)); assay: cell-based or functional assay
[5] = biological target: VP1 capsid protein on BKV pseudovirions of genotype Ia (BK-D; JF894228) (BK virus genotype Ia (BK-D)); assay: cell-based or functional assay

B1: antibody F3P6 (antibody, V domains shown)
VH: QVQLVQSGAEVKKPGASVKVSCKASGYTFTTHIIHWVRQAPGQRLEWMGWINAGNGNTHYSEKFQGRVTLTRDTSASTAYMELSSLRSEDTAIYYCAREDQWLGRSPLEYWGQGTLVTVSS
VL: EIVLTQSPGTLSLSPGERATLSCRASQSVSSSYLAWYQHKPGQAPRLLIYGASSRATGIPDRFSGSGSGTDFTLTISRLEPEDFAVYYCQQYGNSYPWTFGQGTKVEIK
- EC50 [1]: 1.25 µg/mL
- EC50 [2]: 0.15 µg/mL
- Neutralization PSV IC50 [3]: 0.262 µg/mL
- Neutralization PSV IC50 [4]: 0.0062 µg/mL
- Neutralization PSV IC50 [5]: 0.363 µg/mL

B2: antibody G5P6 (antibody, V domains shown)
VH: QVQLVQSGAEVKKPGASVKVSCKASGYTFTTHIIHWVRQAPGQRLEWMGWINAGNGNTKYSEKFQGRVTLTRDTSASTAYMELSSLRSEDTAIYYCAREDQWLGRSPLEYWGQGTLVTVSS
VL: EIVLTQSPGTLSLSPGERATLSCRASQSVSSSYLAWYQHKPGQAPRLLIYGASSRATGIPDRFSGSGSGTDFTLTVSRLEPEDFAVYYCQQYGNSYPWTFGQGTKVEIK
- EC50 [1]: 0.7 µg/mL
- EC50 [2]: 0.28 µg/mL
- Neutralization PSV IC50 [3]: 0.0889 µg/mL
- Neutralization PSV IC50 [4]: 0.0082 µg/mL
- Neutralization PSV IC50 [5]: 0.299 µg/mL

B3: antibody F3P7 (antibody, V domains shown)
VH: QVQLVQSGAEVKKPGASVKVSCKVSGYTFTSYSMHWLRQAPGQRLEWMGWINAGNGDTKYSQKFQGRITISRDTSARTTYMELSSLRSEDTAVFYCARSNSPTVTYNYYYYAMDVWGQGTTVTVSS
VL: EIVLTQSPGTLSLSPGERATLSCRASQSVRSSYLAWYQQQAGQAPRLLIYDASSRATGIPDRFSGSGSGTDFSLTISRLDPEDFAVYYCQQYGNSPLTFGGGTKVEIK
- EC50 [1]: 1.8 µg/mL
- EC50 [2]: 1.5 µg/mL
- Neutralization PSV IC50 [3]: 0.614 µg/mL
- Neutralization PSV IC50 [4]: 0.0457 µg/mL
- Neutralization PSV IC50 [5]: > 50 µg/mL

B4: antibody F4P5 (antibody, V domains shown)
VH: EVQLVESGGGVVQPGRSLRLSCAASGFTFSNFGMHWVRQPPGKGLEWVAVISYDGSDKFYADSVKGRFTISRDNFKNTLYVQMNSLRAEDTAVYYCAKDRVRTKYYYDHSGPFDYWGRGTLVTVSS
VL: SYELTQPPSVSVAPGQTARIACGGNNIGSKSVHWYQQRPGQAPVLVVYDDDDRPSGIPERFSGSNSGNTATLTISRVEAGDEADYFCQVWMTNSDRPVFGGGTKLTVL
- EC50 [1]: 12 µg/mL
- EC50 [2]: 10 µg/mL
- Neutralization PSV IC50 [3]: 15.9 µg/mL
- Neutralization PSV IC50 [4]: 0.471 µg/mL
- Neutralization PSV IC50 [5]: 0.0008 µg/mL

B5: antibody D11P7 (antibody, V domains shown)
VH: EVQLVESGGGLVQPGGSLRLSCAASGFTFRSYTMDWVRQAPGKGLEWVSCISGSSNHKYYADSVRGRFTISRDNAKNSLFLQMNSLRAEDSAVYYCAREDDILTPLYGMDVWGPGTTVTVSS
VL: QSALTQPASVSGSPGQSITISCTGTSSDVGAYNYVSWYRLRPGKDPHLIIYDVSHRPAGVSNRFSGSKSGNTASLTISGLQAEDEDEYYCCSYAHRGTPLFGGGTKLTVL
- binding result [1]: no binding (tested: starting at 50 µg/mL)
- binding result [2]: no binding (tested: starting at 50 µg/mL)
- Neutralization PSV IC50 [3]: > 50 µg/mL
- Neutralization PSV IC50 [4]: 0.0901 µg/mL
- Neutralization PSV IC50 [5]: 0.275 µg/mL

B6: antibody D7P6 (antibody, V domains shown)
VH: EVQLLESGGGLVQPGGSLRLSCAASGFPFSSYAMSWVRQAPGKGLEWVSGITGSASGTYYADSVKGRFTISRDNSKNTLYLRMNSLRAEDTAVYYCAKEGAYSYDYWYFDLWGRGTLVTVSS
VL: EIVLTQSPGTLSLSPGERATLSCRASQSVSGSYLAWYQQKPGQTPRLLIYGASSRATGIPDRFSGSGSGTDFTLTINRLDPEDFGVYYCQQYGSLVTFGGGSKVEIK
- EC50 [1]: 70 µg/mL
- EC50 [2]: 0.25 µg/mL
- Neutralization PSV IC50 [3]: > 50 µg/mL
- Neutralization PSV IC50 [4]: 0.0103 µg/mL
- Neutralization PSV IC50 [5]: 0.096 µg/mL

B7: antibody B10P1 (antibody, V domains shown)
VH: EVQLSESGGGLVQPGGSLRLSCAASGFTFSSYAMSWVRQAPGKGLEWVSSLTGSGGSTYYRDSVKGRFTIFRDNSKKTLYMQMNSLRAEDTAVYYCAKEGAYSYDFWYFDLWGRGTLVTVSS
VL: EIVLTQSPGTLSLSPGERATLSCRASQTVSGNYLAWYQQKPGQSPSLLIYGASSRATGIPDRFTGSGSGTDFTLTISRLEPADFAVYYCQQYGRPLTFGGGTKVDIK
- EC50 [1]: 15 µg/mL
- EC50 [2]: 2.8 µg/mL
- Neutralization PSV IC50 [3]: > 50 µg/mL
- Neutralization PSV IC50 [4]: 0.107 µg/mL
- Neutralization PSV IC50 [5]: 1.27 µg/mL

B8: antibody G9P2 (antibody, V domains shown)
VH: EVQLLESGGGLVQPGGSLRLSCAASGFTFSSYAMSWVRQAPGKGLEWVSSLTGSGGSTYYRDSVKGRFTIFRDNSKKTLYMQMNSLRAEDTAVYYCAKEGAYSYDFWYFDLWGRGTLVTVSS
VL: EIVLTQSPGTLSLSPGERATLSCRASQTVSGNYLAWYQQKPGQSPSLLTYGASSRATGIPDRFTGSGSGTDFTLTISRLEPADFAVYYCQQYGRPLTFGGGTKVEIK
- EC50 [1]: 10 µg/mL
- EC50 [2]: 1.5 µg/mL
- Neutralization PSV IC50 [3]: > 50 µg/mL
- Neutralization PSV IC50 [4]: 0.0336 µg/mL
- Neutralization PSV IC50 [5]: 0.683 µg/mL

B9: antibody B7P6 (antibody, V domains shown)
VH: EVQLVQSGAELKKPGESLKISCKGSGFTFTNYWIAWVRQMPGKGLEWMGIIYPDDSDARYSPSFEGQVTISVDKSISTAYLQWSSLKASDTAIYYCARGGFCSGSVCYNPAWFDLWGQGTLVTVSS
VL: DIQMTQSPSSLSASVGDRVTITCRASQTINTYLNWYLQKPGKAPKLLISDASSLETGVPSRFSGSGSGTDFTLTISSLQPDDFATYYCQQSYSTPLTFGGGTKVEIK
- EC50 [1]: 0.1 µg/mL
- EC50 [2]: 0.04 µg/mL
- Neutralization PSV IC50 [3]: 0.121 µg/mL
- Neutralization PSV IC50 [4]: 0.0044 µg/mL
- Neutralization PSV IC50 [5]: 0.0479 µg/mL

B10: antibody E4P2 (antibody, V domains shown)
VH: QVQLQESGPGLVKPSQTLSLTCTVSGGSISSGGYYWSWIRQHPGKGLEWIGYMYYSGSTNYNPSLKSRVTISVDTSKNQFSLKLTSVTAADTAVYYCARDRRDYGDYYYFGMDVWGQGTTVTVSS
VL: QSVLTQPPSVSGAPGQRVTISCTGSSSNIGAGYDVHWYQQLPGTAPKLLIYANSNRPSGVPDRFSGSKSGTSASLAITGLQAEDEANYYCQSYDSSLSVYVVFGGGTKLTVL
- EC50 [1]: 0.18 µg/mL
- EC50 [2]: 0.025 µg/mL
- Neutralization PSV IC50 [3]: > 50 µg/mL
- Neutralization PSV IC50 [4]: 0.979 µg/mL
- Neutralization PSV IC50 [5]: 0.0399 µg/mL

B11: antibody E6P5 (antibody, V domains shown)
VH: EVQLVESGGGLVQPGRSLRLSCSASGFTFDDHAMHWVRQAPGKGLEWVAGINWNSASIVYADSVKGRFTISRDNVKNSLYLQMNSLRADDTALYYCAKDFGLWFGESRGIDAWGRGTTVTVSS
VL: DIVMTQSPLSLPVTPGEPASISCRPSQSLLHSNGYNYLNWYLQKPGRSPQLLIYLGSNRASGVPDRFSGSGSGTDFTLKISRVEAEDVGIYYCMQALQTPITFGQGTRLEIK
- EC50 [1]: 3 µg/mL
- EC50 [2]: 0.6 µg/mL
- Neutralization PSV IC50 [3]: 1.19 µg/mL
- Neutralization PSV IC50 [4]: 0.232 µg/mL
- Neutralization PSV IC50 [5]: 0.0008 µg/mL

B12: antibody G7P7 (antibody, V domains shown)
VH: QVQLQESGPGLVRPSQTLSLTCTVSGGSMTSGSYYWSWIRQPAEKGLEWIGRIYTSGRTDYNPSLKSRVAMSIDTSKNQFSLRLTSVTAADTAVYYCARWGDSSAYYYVGDPWGRGTPVTVSS
VL: DIQMTQSPSSLSASIGDRVTITCRASQNINTYLYWYQQKPGKAPQLLIYAASNLQTGAPSRFSGSGSGTDFTLTISSLQPADFATYYCQQSFSLPHTFGQGTKLEIK
- EC50 [1]: 0.04 µg/mL
- EC50 [2]: 0.06 µg/mL
- Neutralization PSV IC50 [3]: 0.0036 µg/mL
- Neutralization PSV IC50 [4]: 0.0007 µg/mL
- Neutralization PSV IC50 [5]: 12.5 µg/mL

B13: antibody C6P7 (antibody, V domains shown)
VH: QVQLQESGPGLVRPSQTLSLTCTVSGGSMTSGSYYWSWIRQPAEKGLEWIGRIYTSGRTDYNPSLKSRVAMSIDTSKNQFSLRLTSVTAADTAVYYCARWGDSSAYYYVGDPWGRGTPVTVSS
VL: DIQMTQSPSSLSASIGDRVTITCRASQNINTYLYWYQQKPGKAPQLLIYAASNLQTGAPSRFSGSGSGTDFTLTISSLQPADFATYYCQQSFSLPHTFGQGTKVEIK
- EC50 [1]: 0.08 µg/mL
- EC50 [2]: 0.55 µg/mL
- Neutralization PSV IC50 [3]: 0.0053 µg/mL
- Neutralization PSV IC50 [4]: 0.0002 µg/mL
- Neutralization PSV IC50 [5]: 0.104 µg/mL

B14: antibody G8P6 (antibody, V domains shown)
VH: QVQLQESGPGLVRPSQTLSLTCTVSGGSMTSGSYYWSWIRQPAEKGLEWIGRIYTSGRTDYNPSLKSRVAMSIDTSKNQFSLRLTSVTAADTAVYYCARWGDSSAYYYVGDPWGRGTTVTVSS
VL: DIQMTQSPSSLSASIGDRVTITCRASQNINTYLYWYQQKPGKAPQLLIYAASNLQTGAPSRFSGSGSGTDFTLTISSLQPADFATYYCQQSFSLPHTFGQGTKLEIK
- EC50 [1]: 0.06 µg/mL
- EC50 [2]: 0.08 µg/mL
- Neutralization PSV IC50 [3]: 0.0582 µg/mL
- Neutralization PSV IC50 [4]: 0.0058 µg/mL
- Neutralization PSV IC50 [5]: 6.44 µg/mL
